Measurements: patent US20160171150A1, “Chemical Modulators of Pro-Apoptotic BAX and BCL-2 Polypeptides” (Dana-Farber Cancer Institute, Inc., priority 2008, published 2016)

Molecular target: T1, BAX (Homo sapiens, UniProt Q07812)
T1 construct: Full-length human BAX-encoding cDNA (aa 1-192) was cloned into pTYB1 plasmid; made in house; host or cells: Escherichia coli BL21(DE3)
Assay: NMR analysis of BIM SAHB binding to BAX
Conditions: 1H-15N correlation spectrum, BIM SAHB titration
From the text: To investigate the initiating event for BAX activation, the interaction of BAX with the BH3 ligand BIM SAHB was studied. […] BIM SAHB binding to BAX was monitored using Nuclear Magnetic Resonance (NMR) spectroscopy. Compared to the ^1H-^15N correlation spectrum of BAX, the addition of BIM SAHB broadened and shifted select NMR cross-peaks, indicating fast exchange between the bound and unbound conformations of BAX. The overall features of the NMR spectra were quite similar except for significant changes in the loop residues between α1 and α2 upon BIM SAHB binding. […] Significant changes were also observed for the side-chain NH2 of Q28, Q32, and Q52. […]
Screening by NMR is conducted by recording ^1H-^13C filtered-1D experiments of uniformly ^13C-labeled BAX at 25-50 μM concentrations, in the absence and presence of compounds at 50-100 μM concentrations. […] The weighted average chemical shift difference is calculated as √{square root over ({(ΔH)2+(ΔN/5)2}/2)} in p.p.m. and plotted as a function of the residue number of BAX. […] NMR experiments are processed with the NMRPipe spectral analysis package and chemical shifts variations measured with NMRView software. NMR spectra are recorded, for example, at 30° C. on Bruker Avance 600 MHz equipped with a z-shielded gradient, triple resonance cryoprobe.

T1 sequence (Q07812 whole entry, the tested form may be a part): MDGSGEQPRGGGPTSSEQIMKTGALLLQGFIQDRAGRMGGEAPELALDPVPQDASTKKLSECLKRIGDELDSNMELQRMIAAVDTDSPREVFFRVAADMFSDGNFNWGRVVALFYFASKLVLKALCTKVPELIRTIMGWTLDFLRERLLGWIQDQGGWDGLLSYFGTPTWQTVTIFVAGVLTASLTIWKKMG

BIM SAHB: hydrocarbon-stapled BIM BH3 peptide (SEQ ID NO:3), Stabilized Alpha-Helix of BCL-2 domain; direct BAX-activating compound
binding to BAX (chemical shift perturbation mapping): revealed interactions at a discrete subset of BAX residues
